The Human Domainome abundance scans (Beltran et al. 2025)
± gives the uncertainty stated by the source.

B1: Formin-binding protein 4, residues 593 to 636; numbered along this chain, Q8N3X1 (parent)
chain: EINATPKGWSCHWDRDHRRYFYVNEQSGESQWEFPDGEEEEEES

Variants of: B1
Assay: abundance fitness (aPCA) (normalised: wild type 0, dead -1); higher = more abundant; growth selection in yeast, the domain comes from the species named
Settings: Homo sapiens

| Variant | abundance fitness |
| --- | --- |
| D14Y | -1.24 ± 0.15 |
| D14E | -0.685 ± 0.13 |
| D14V | -0.811 ± 0.079 |
| D14P | -1.12 ± 0.29 |
| D14I | -0.799 ± 0.17 |
| D14W | -1.4 ± 0.11 |
| D14R | -0.843 ± 0.076 |
| D14K | -0.928 ± 0.14 |
| D14G | -0.963 ± 0.068 |
| D16R | -0.274 ± 0.059 |
| D16V | -0.253 ± 0.08 |
| D16Q | -0.075 ± 0.12 |
| D16W | -0.218 ± 0.069 |
| D16F | -0.362 ± 0.17 |
| P6S | -0.412 ± 0.39 |
| E39N | 0.052 ± 0.096 |
| E39K | 0.048 ± 0.075 |
| R15T | -0.162 ± 0.29 |
| R15S | 0.019 ± 0.093 |
| R15K | 0.14 ± 0.11 |
| G37E | -0.095 ± 0.084 |
| G37L | -0.151 ± 0.071 |
| G37W | -0.154 ± 0.072 |
| G37Q | -0.089 ± 0.094 |

| Variant | abundance fitness |
| --- | --- |
| G37S | -0.112 ± 0.07 |
| K7F | -0.303 ± 0.1 |
| K7L | -0.299 ± 0.1 |
| K7A | -0.079 ± 0.093 |
| K7G | -0.577 ± 0.15 |
| W13R | -0.738 ± 0.065 |
| W13C | -0.497 ± 0.1 |
| W13P | -0.404 ± 0.074 |
| W13F | -0.095 ± 0.18 |
| W13H | -0.499 ± 0.1 |
| W13M | -0.542 ± 0.096 |
| W13K | -0.545 ± 0.16 |
| G28Q | -0.337 ± 0.11 |
| G28V | -0.932 ± 0.085 |
| G28E | -0.702 ± 0.1 |
| G28C | -0.61 ± 0.12 |
| G28S | -0.553 ± 0.075 |
| F21T | -0.111 ± 0.16 |
| F21Q | -0.223 ± 0.19 |
| F21V | 0.113 ± 0.067 |
| F21P | -0.303 ± 0.093 |
| F21G | -0.368 ± 0.058 |
| F21E | -0.145 ± 0.089 |
| Y22G | -0.544 ± 0.081 |

| Variant | abundance fitness |
| --- | --- |
| Y22N | -0.092 ± 0.29 |
| Y22D | -0.552 ± 0.17 |
| Y22W | 0.035 ± 0.08 |
| Y22I | -0.515 ± 0.17 |
| Y22S | -0.322 ± 0.087 |
| Y20E | -0.488 ± 0.078 |
| Y20P | -0.143 ± 0.1 |
| Y20G | -0.605 ± 0.063 |
| Y20V | -0.206 ± 0.068 |
| Y20C | -0.196 ± 0.12 |
| S27D | -0.551 ± 0.14 |
| S27N | -0.453 ± 0.47 |
| S27C | -0.681 ± 0.28 |
| S27E | -0.427 ± 0.091 |
| S27Q | -0.613 ± 0.12 |
| S27P | -1.02 ± 0.19 |
| S30W | 0.02 ± 0.11 |
| S30K | 0.274 ± 0.16 |
| S30M | 0.04 ± 0.17 |
| S30R | 0.27 ± 0.081 |
| S30I | 0.082 ± 0.13 |
| Q31M | -0.451 ± 0.12 |
| Q31E | -0.707 ± 0.081 |
| Q31A | -0.377 ± 0.065 |

| Variant | abundance fitness |
| --- | --- |
| Q31K | -0.32 ± 0.11 |
| Q31C | -0.129 ± 0.093 |
| H12C | -0.302 ± 0.14 |
| H12Y | -0.227 ± 0.15 |
| H12K | -0.179 ± 0.097 |
| N3Q | 0.041 ± 0.084 |
| N3Y | -0.062 ± 0.24 |
| N3G | -0.098 ± 0.071 |
| N3A | -0.177 ± 0.088 |
| N3V | -0.093 ± 0.11 |
| E1A | -0.14 ± 0.15 |
| E1D | -0.154 ± 0.15 |
| E25K | 0.477 ± 0.27 |
| E25G | -0.316 ± 0.073 |
| W32L | -0.002 ± 0.07 |
| W32Y | -0.169 ± 0.12 |
| W32R | -0.324 ± 0.064 |
| W32I | 0.001 ± 0.13 |
| W32E | -0.273 ± 0.086 |
| W32D | -0.364 ± 0.14 |
| W32M | -0.243 ± 0.098 |
| V23K | 0.074 ± 0.11 |
| V23G | -0.607 ± 0.059 |
| V23Q | -0.179 ± 0.093 |

| Variant | abundance fitness |
| --- | --- |
| V23L | -0.024 ± 0.082 |
| V23P | -0.736 ± 0.11 |
| V23M | -0.331 ± 0.14 |
| V23R | -0.039 ± 0.058 |
| F34G | -0.392 ± 0.065 |
| F34S | -0.282 ± 0.087 |
| F34K | 0.222 ± 0.095 |
| F34Y | -0.084 ± 0.12 |
| N24Y | -0.998 ± 0.16 |
| N24D | -0.362 ± 0.085 |
| N24T | -0.63 ± 0.14 |
| N24Q | -0.41 ± 0.084 |
| N24E | -0.335 ± 0.082 |
| N24W | -0.726 ± 0.082 |
| N24S | -0.315 ± 0.079 |
| N24R | -0.359 ± 0.058 |
| E40R | -0.035 ± 0.058 |
| E40L | 0.008 ± 0.061 |
| E40D | -0.158 ± 0.13 |
| E40N | -0.057 ± 0.11 |
| E40F | -0.144 ± 0.15 |
| E40V | 0.056 ± 0.061 |
| E40K | -0.004 ± 0.09 |
| A4G | 0.033 ± 0.073 |

| Variant | abundance fitness |
| --- | --- |
| A4Q | -0.122 ± 0.2 |
| A4R | -0.01 ± 0.07 |
| A4K | -0.008 ± 0.17 |
| E38Q | 0.061 ± 0.077 |
| E38A | 0.018 ± 0.066 |
| E38M | 0.058 ± 0.087 |
| E38I | -0.021 ± 0.16 |
| E38Y | -0.316 ± 0.39 |
| E38V | 0.008 ± 0.084 |
| E43Q | -0.433 ± 0.3 |
| E43A | 0.068 ± 0.07 |
| E43N | -0.08 ± 0.15 |
| E43L | -0.086 ± 0.093 |
| E43T | 0.008 ± 0.089 |
| E41D | -0.28 ± 0.13 |
| E41L | -0.1 ± 0.073 |
| S44L | -0.194 ± 0.12 |
| S44G | 0.083 ± 0.098 |
| E29I | -0.062 ± 0.13 |
| E29N | -0.421 ± 0.31 |
| E29C | -0.575 ± 0.18 |
| E29D | -0.388 ± 0.26 |
| E29W | -0.559 ± 0.093 |
| T5G | -0.393 ± 0.097 |

| Variant | abundance fitness |
| --- | --- |
| T5D | -0.463 ± 0.3 |
| T5H | -0.534 ± 0.36 |
| T5F | -0.306 ± 0.17 |
| T5W | -0.19 ± 0.15 |
| T5Q | -0.358 ± 0.44 |
| T5V | 0.065 ± 0.17 |
| T5R | -0.345 ± 0.13 |
| R18A | 0.012 ± 0.071 |
| R18T | -0.344 ± 0.093 |
| R18C | -0.183 ± 0.22 |
| S10W | -1.06 ± 0.12 |
| S10H | -0.502 ± 0.29 |
| S10Y | -0.521 ± 0.43 |
| S10T | -0.288 ± 0.24 |
| S10Q | -0.183 ± 0.15 |
| E33L | -0.401 ± 0.072 |
| E33N | 0.031 ± 0.094 |
| E33C | -0.355 ± 0.25 |
| E33D | -0.237 ± 0.15 |
| E33I | -0.284 ± 0.28 |
| E42C | -0.023 ± 0.064 |
| E42Y | -0.152 ± 0.14 |
| E42S | 0.032 ± 0.073 |
